Molecular target: Biotinylated C4b (UniProt P0C0L4)
Assay: SPR, biotinylated C4b on streptavidin chip, 1:1 steady-state affinity model

Kd: 2900 nM
B1: C4BP(1-4) (protein)
chain: AGNCGPPPTLSFAAPMDITLTETRFKTGTTLKYTCLPGYVRSHSTQTLTCNSDGEWVYNTFCIYKRCRHPGELRNGQVEIKTDLSFGSQIEFSCSEGFFLIGSTTSRCEVQDRGVGWSHPLPQCEIVKCKPPPDIRNGRHSGEENFYAYGFSVTYSCDPRFSLLGHASISCTVENETIGVWRPSPPTCEKITCRKPDVSHGEMVSGFGPIYNYKDTIVFKCQKGFVLRGSSVIHCDADSKWNPSPPACEP

Reference: patent EP4559472A1
